Laboratory results: publication PMC6804253, “Predicting and Experimentally Validating Hot-Spot Residues at Protein–Protein Interfaces” (ACS Chemical Biology, 2019)
Like-named read-outs stand apart in the source and are kept apart here.

Experiments:
[1] = system: PPIs of the SKEMPI data set (by PDBID); test: SKEMPI experimental ΔΔG, single mutations to alanine; type: binding; conditions: ref SKEMPI
[2] = system: PPIs of the SKEMPI data set (by PDBID); conditions: ref SKEMPI, cited from earlier work; for sk_ddG_kJ (SKEMPI experimental ΔΔG of binding, mutation to alanine): single mutation to alanine in the complex of the given PDBID; for sk_ddG_kJ (SKEMPI experimental ΔΔG, mutation to alanine) / sk_ddG_kJ: single mutation to alanine; for sk_ddG_kJ: SKEMPI experimental ΔΔG of binding; for sk_class: class of the SKEMPI experimental ΔΔG
[3] = Positive / Neutral / Negative by ΔΔG threshold 4.184 kJ/mol
[4] = class by ΔΔG threshold 4.184 kJ/mol

| Molecule | sk_class (class of the SKEMPI experimental ΔΔG) [1, 3] | sk_ddG_kJ (SKEMPI experimental ΔΔG of binding, mutation to alanine) [2] [kJ] | sk_ddG_kJ ([2]; PPI given by PDBID) [kJ] | sk_class [2] | further results |
| --- | --- | --- | --- | --- | --- |
| 1A22 FA10A | Positive (positive (a hot residue) ΔΔG ≥ 4.184 kJ/mol) | 4.35 | – | – | – |
| 1A22 FA25A | Neutral (neutral (little effect) 4.184 kJ/mol < ΔΔG > −4.184 kJ/mol) | -1.72 | – | – | – |
| 1A22 FA54A | Neutral (neutral (little effect) 4.184 kJ/mol < ΔΔG > −4.184 kJ/mol) | 3.64 | – | – | – |
| 1A22 FA176A | Positive (positive (a hot residue) ΔΔG ≥ 4.184 kJ/mol) | 7.95 | – | – | – |
| 1A22 FA191A | Neutral (neutral (little effect) 4.184 kJ/mol < ΔΔG > −4.184 kJ/mol) | 0.79 | – | – | – |
| 1A22 HA21A | – | – | – | – | sk_class (class of the SKEMPI experimental ΔΔG) [1, 4]: Neutral (neutral (little effect) 4.184 kJ/mol < ΔΔG > −4.184 kJ/mol); sk_ddG_kJ (SKEMPI experimental ΔΔG, mutation to alanine) ([2]; PPI given by PDBID, sheet sortedByGroup, r_group DERKH): 0.84 kJ |
| 1A22 IA58A | Positive (positive (a hot residue) ΔΔG ≥ 4.184 kJ/mol) | 6.86 | – | – | – |
| 2PCC VA197A (protein, UniProt P00431 68-361, looked up, variant V197A) Cytochrome c peroxidase, …: TTPLVHVASVEKGRSYEDFQKVYNAIALKLREDDEYDNYIGYGPVLVRLAWHTSGTWDKHDNTGGSYGGTYRFKKEFNDPSNAGLQNGFKFLEPIHKEFPWISSGDLFSLGGVTAVQEMQGPKIPWRCGRVDTPEDTTPDNGRLPDADKDADYVRTFFQRLNMNDREVVALMGAHALGKTHLKNSGYEGPWGAANNAFTNEFYLNLLNEDWKLEKNDANNEQWDSKSGYMMLPTDYSLIQDPKYLSIVKEYANDQDKFFKDFSKAFEKLLENGITFPKDAPSPFIFKTLEEQGL | – | – | – | – | sk_class (class of SKEMPI experimental ΔΔG) [2, 4]: Positive (positive (a hot residue) ΔΔG ≥ 4.184 kJ/mol); sk_ddG_kJ (SKEMPI experimental ΔΔG, mutation to alanine) ([2]; complex given by PDBID, residue group in r_group): 8.74 kJ |
| 1JRH NI48A (protein, UniProt P15260 18-245, looked up, variant N48A, extracellular domain) extracellular domain: EMGTADLGPSSVPTPTNVTIESYNMNPIVYWEYQIMPQVPVFTVEVKAYGVKNSEWIDACINISHHYCNISDHVGDPSNSLWVRVKARVGQKESAYAKSEEFAVCRDGKIGPPKLDIRKEEKQIMIDIFHPSVFVNGDEQEVDYDPETTCYIRVYNVYVRMNGSEIQYKILTQKEDDCDEIQCQLAIPVSSLNSQYCVSAEGVLHVWGVTTEKSKEVCITIFNSSIKG | – | – | 2.64 | Neutral (neutral (little effect) 4.184 kJ/mol < ΔΔG > −4.184 kJ/mol) | – |
| 1JRH NI53A (protein, UniProt P15260 18-245, looked up, variant N53A, extracellular domain) extracellular domain: EMGTADLGPSSVPTPTNVTIESYNMNPIVYWEYQIMPQVPVFTVEVKNYGVKASEWIDACINISHHYCNISDHVGDPSNSLWVRVKARVGQKESAYAKSEEFAVCRDGKIGPPKLDIRKEEKQIMIDIFHPSVFVNGDEQEVDYDPETTCYIRVYNVYVRMNGSEIQYKILTQKEDDCDEIQCQLAIPVSSLNSQYCVSAEGVLHVWGVTTEKSKEVCITIFNSSIKG | – | – | 19.71 | Positive (positive (a hot residue) ΔΔG ≥ 4.184 kJ/mol) | – |
| 1JRH SI54A (protein, UniProt P15260 18-245, looked up, variant S54A, extracellular domain) extracellular domain: EMGTADLGPSSVPTPTNVTIESYNMNPIVYWEYQIMPQVPVFTVEVKNYGVKNAEWIDACINISHHYCNISDHVGDPSNSLWVRVKARVGQKESAYAKSEEFAVCRDGKIGPPKLDIRKEEKQIMIDIFHPSVFVNGDEQEVDYDPETTCYIRVYNVYVRMNGSEIQYKILTQKEDDCDEIQCQLAIPVSSLNSQYCVSAEGVLHVWGVTTEKSKEVCITIFNSSIKG | – | – | 1.92 | Neutral (neutral (little effect) 4.184 kJ/mol < ΔΔG > −4.184 kJ/mol) | – |
| 1REW QC86A (protein, UniProt P36894 24-152, looked up, variant Q86A, extracellular domain) extracellular domain: QNLDSMLHGTGMKSDSDQKKSENGVTLAPEDTLPFLKCYCSGHCPDDAINNTCITNGHCFAIIEEDDQGETTLASGCMKYEGSDFACKDSPKAQLRRTIECCRTNLCNQYLQPTLPPVVIGPFFDGSIR | – | – | 11.13 | Positive (positive (a hot residue) ΔΔG ≥ 4.184 kJ/mol) | – |
| 1IAR TA6A (protein, UniProt P05112 25-153, looked up, variant T6A) Interleukin-4: HKCDIALQEIIKTLNSLTEQKTLCTELTVTDIFAASKNTTEKETFCRAATVLRQFYSHHEKDTRCLGATAQQFHRHKQLIRFLKRLDRNLWGLAGLNSCPVKEANQSTLENFLERLKTIMREKYSKCSS | – | – | -0.42 | Neutral (neutral (little effect) 4.184 kJ/mol < ΔΔG > −4.184 kJ/mol) | – |
| 1IAR QA8A (protein, UniProt P05112 25-153, looked up, variant Q8A) Interleukin-4: HKCDITLAEIIKTLNSLTEQKTLCTELTVTDIFAASKNTTEKETFCRAATVLRQFYSHHEKDTRCLGATAQQFHRHKQLIRFLKRLDRNLWGLAGLNSCPVKEANQSTLENFLERLKTIMREKYSKCSS | – | – | -0.08 | Neutral (neutral (little effect) 4.184 kJ/mol < ΔΔG > −4.184 kJ/mol) | – |
| 1IAR NA89A (protein, UniProt P05112 25-153, looked up, variant N89A) Interleukin-4: HKCDITLQEIIKTLNSLTEQKTLCTELTVTDIFAASKNTTEKETFCRAATVLRQFYSHHEKDTRCLGATAQQFHRHKQLIRFLKRLDRALWGLAGLNSCPVKEANQSTLENFLERLKTIMREKYSKCSS | – | – | 6.53 | Positive (positive (a hot residue) ΔΔG ≥ 4.184 kJ/mol) | – |
| 1IAR NA15A (protein, UniProt P05112 25-153, looked up, variant N15A) Interleukin-4: HKCDITLQEIIKTLASLTEQKTLCTELTVTDIFAASKNTTEKETFCRAATVLRQFYSHHEKDTRCLGATAQQFHRHKQLIRFLKRLDRNLWGLAGLNSCPVKEANQSTLENFLERLKTIMREKYSKCSS | – | – | -0.13 | Neutral (neutral (little effect) 4.184 kJ/mol < ΔΔG > −4.184 kJ/mol) | – |
| 1IAR TA13A (protein, UniProt P05112 25-153, looked up, variant T13A) Interleukin-4: HKCDITLQEIIKALNSLTEQKTLCTELTVTDIFAASKNTTEKETFCRAATVLRQFYSHHEKDTRCLGATAQQFHRHKQLIRFLKRLDRNLWGLAGLNSCPVKEANQSTLENFLERLKTIMREKYSKCSS | – | – | 4.10 | Neutral (neutral (little effect) 4.184 kJ/mol < ΔΔG > −4.184 kJ/mol) | – |
| 1IAR SA16A (protein, UniProt P05112 25-153, looked up, variant S16A) Interleukin-4: HKCDITLQEIIKTLNALTEQKTLCTELTVTDIFAASKNTTEKETFCRAATVLRQFYSHHEKDTRCLGATAQQFHRHKQLIRFLKRLDRNLWGLAGLNSCPVKEANQSTLENFLERLKTIMREKYSKCSS | – | – | -0.75 | Neutral (neutral (little effect) 4.184 kJ/mol < ΔΔG > −4.184 kJ/mol) | – |
